Assay [1] addresses T1, cyno CCL17 (Macaca fascicularis (cyno), UniProt Q8HYP9 24-94 (rhesus entry)).
T1 sequence: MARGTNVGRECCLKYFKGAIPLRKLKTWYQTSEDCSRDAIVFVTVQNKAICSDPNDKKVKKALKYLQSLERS
The experiment in a line: cell-based or functional assay.

Assay [2] concerns the target T2, human CCL17 (human, UniProt Q92583 24-94).
T2 sequence: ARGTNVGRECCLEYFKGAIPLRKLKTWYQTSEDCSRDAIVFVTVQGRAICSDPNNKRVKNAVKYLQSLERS
As to the kind of experiment: cell-based or functional assay.

Assay [3] deals with T1, cyno CCL17. The experiment in a line: solution equilibrium affinity (MSD-SEA), TBST, 48 h at 4 °C. How it is done:
(§1) Equal volumes of the anti-hCCL17 mAbs at 40 pM or 200 pM were added to each chemokine dilution to obtain mixtures containing the serial dilution of chemokines starting at a final concentration of […] and a constant concentration (20 pM or 100 pM) of anti-CCL17 antibody. The mixtures were prepared in duplicate and incubated at 4° C. for 48 hours to reach equilibrium. The free antibody was detected using a SECTOR Imager 6000 (Meso Scale Discovery) instrument. The resulting binding curves were fitted to obtain the dissociation equilibrium constant (KD) using the GraphPad Prism software (v 5.01) using a 1:1 binding model to perform nonlinear least-square regression analysis of the data.

Assay [4] deals with T2, human CCL17. Described as above. How it is done:
as §1

Assay [5] concerns the target T2, human CCL17. As to the kind of experiment: not stated in the legend (affinities by MSD-SEA in Examples 3 and 4).
The target in assay [6] is T1, cyno CCL17. The experiment in a line: cell-based or functional assay. The source holds these as a separate data set.
Assay [7] has as its target T2, human CCL17. As to the kind of experiment: cell-based or functional assay. The source holds these as a separate data set.
The target of assay [8] is T2, human CCL17. The experiment in a line: MSD-SEA; affinity for human CCL17 against that for cyno CCL17. How it is done: as §1
The target in assay [9] is T1, cyno CCL17. The experiment in a line: ELISA, Fab captured by anti-kappa, biotinylated chemokine, streptavidin:HRP. How it is done: (§2) Briefly, Maxisorp 96 well plates were coated with 1 μg/ml Goat anti-human Kappa (Southern Biotech). Semi-purified Fab was added to each plate. […] Proteins bound to the captured Fabs were detected using Streptavidin:HRP.
For orientation: In an ELISA, binding on a coated surface is turned into a signal by an enzyme label.

For a further assay, the target named is T3, cyno CCL22 (cyno, UniProt O00626 25-93 (human entry), limits assumed).
T3 construct: Biotinylated in the Fab ELISA; also called cCCL22; CCCL22
T3 chain: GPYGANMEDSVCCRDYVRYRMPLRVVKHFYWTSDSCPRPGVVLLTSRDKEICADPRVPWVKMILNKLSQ
The assay is described as above. How it is done: as §2

Assay [10] concerns the target T2, human CCL17. As to the kind of experiment: ranking ELISA of Fab variants with bt-human CCL17.

Positions count from the first letter of the chain named.

B1: C17B234 (antibody, V domains shown)
VH: EVQLVQSGAEVKKPGESLKISCKGSGYSFTSYWIGWVRQMPGKGLEWMGIIDPSDSDTRYSPSFQGQVTISADKSISTAYLQWSSLKASDTAMYYCARVGPADVWDSFDYWGQGTLVTVSS
VL: DIVMTQSPDSLAVSLGERATINCKSSQSVLLSFDNINKLAWYQQKPGQPPKLLIYNASTRESGVPDRFSGSGSGTDFTLTISSLQAEDVAVYYCQQFYSVPSTFGQGTKVEIK
notes: Full IgG1, kappa
As to B1, the figures for the “IC50 (nM), β-arrestin assay, Hek293 cells co-expressing CCR4, 20 nM CCL17” value with cyno CCL17 [1] and with human CCL17 [2] were 5.39 nM and 8.42 nM, respectively. Moreover, the values for the dissociation constant (Kd) with cyno CCL17 [3], with human CCL17 [4] and with human CCL17 [5] were 0.23 nM, 0.002 nM and at most 100 nM, respectively. Further, in the assay with cyno CCL17 [6], the “IC50 (nM), calcium flux assay in CCRF-CEM cells, 5 ng/ml cyno CCL17” value is 0.369 nM. Further, the “IC50 (nM), calcium flux assay in CCRF-CEM cells, 10 ng/ml human CCL17” value in the assay with human CCL17 [7] came to 0.421 nM. Further, in the assay with human CCL17 [8], the “Fold binding human/cyno CCL17” value was found to be 115 fold.

B2: F24 (Fab, V domains shown)
VH: B1 VH
VL: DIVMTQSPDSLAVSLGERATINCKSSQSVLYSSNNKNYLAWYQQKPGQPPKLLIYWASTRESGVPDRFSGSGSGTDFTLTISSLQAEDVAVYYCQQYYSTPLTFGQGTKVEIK
notes: Semi-purified Fab with a His tag at the C-terminus of the heavy chain; also called C17F24
B2: the binding result with cyno CCL17 [9] is reported as “binds”; in the assay with cyno CCL22, “no binding”.

B3: C17B236 (antibody, V domains shown)
VH: B1 VH
VL: B1 VL with F33P, D34W, I36S, K38Q, N56G, F97Y, S99L, V100I
notes: Full IgG1, kappa
On to B3, for which the “IC50 (nM), β-arrestin assay, Hek293 cells co-expressing CCR4, 20 nM CCL17” value was 9.5 nM in the assay with cyno CCL17 [1] and 6.98 nM with human CCL17 [2]. Moreover, the Kd with cyno CCL17 [3] was 0.297 nM; in the assay with human CCL17 [4], 0.039 nM; in the assay with human CCL17 [5], at most 100 nM. Moreover, the “IC50 (nM), calcium flux assay in CCRF-CEM cells, 5 ng/ml cyno CCL17” value with cyno CCL17 [6] was 0.349 nM. The “IC50 (nM), calcium flux assay in CCRF-CEM cells, 10 ng/ml human CCL17” value in the assay with human CCL17 [7] came out at 0.385 nM. In the assay with human CCL17 [8], the “Fold binding human/cyno CCL17” value worked out at 7.6 fold.

B4: C17F319 variant W→T at HCDR3 position 100a (Kabat) (Fab, V domains shown)
VH: B1 VH with W105T
VL: B1 VL with F33P, D34W, I36S, K38Q, N56G, F97Y, S99L, V100I
As for B4, in the assay with human CCL17 [10], the binding result is given as “binds”.

B5: C17F319 variant W→R at HCDR3 position 100a (Kabat) (Fab, V domains shown)
VH: B1 VH with W105R
VL: B1 VL with F33P, D34W, I36S, K38Q, N56G, F97Y, S99L, V100I
Regarding B5, the binding result with human CCL17 [10] is “binds”.

As usually defined, the Kd is the concentration at which binding is half-saturated. Low readings indicate tighter binding, high ones weaker binding.

Source of the values: patent US20220348647A1 (published 2022).
